{"source": "paper PMC5651819", "about": "“AtSPX1 affects the AtPHR1–DNA-binding equilibrium by binding monomeric AtPHR1 in solution” (Biochemical Journal, 2017)", "biological_target": "MBP-AtdPHR1 (Arabidopsis thaliana) (UniProt Q94CL7)", "sequence (Q94CL7 208-362)": "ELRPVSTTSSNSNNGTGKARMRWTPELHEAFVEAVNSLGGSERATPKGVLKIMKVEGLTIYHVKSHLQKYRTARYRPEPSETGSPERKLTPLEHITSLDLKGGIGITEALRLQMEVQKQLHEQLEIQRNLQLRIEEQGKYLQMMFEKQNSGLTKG", "test": "SPR", "settings": "SPR (Biacore 3000, SA chip, ~500 RU DNA): 10 mM HEPES pH 7.5, 200 mM NaCl, 0.01% Surfactant P-20, 25 C, 40 ul/min, with or without Pi/InsP6"}
{"sequence": "ACACTTCGTCACGCTAAAGCTAAGCATATCCGCTTTCATATTCCTTTACACAAC (double strand) [1x P1BS probe]", "values": [{"measurement": "Kd", "value": 707, "unit": "nM"}]}
